In article PMC5773487, “Harnessing insulin- and leptin-induced oxidation of PTP1B for therapeutic development” (Nature Communications, 2018):
Entries after “also recorded” stand apart in the source; their conditions may differ.

Legend:
[1] = biological target: T1, reversibly oxidized TCPTP-mut2 (F39L/E41K/R43K) (Homo sapiens, UniProt P17706, E41K/F39L/R43K); assay: in vitro binding assay (anti-HA co-immunoprecipitation)
T1 construct: PTP1B (1–321) and TCPTP (1–317) cloned in pET21b vector were used as templates; 6xHis (C); made in house; host or cells: E. coli BL21 (DE3)-RIL
T1 sequence (P17706 1-317 F39L/E41K/R43K): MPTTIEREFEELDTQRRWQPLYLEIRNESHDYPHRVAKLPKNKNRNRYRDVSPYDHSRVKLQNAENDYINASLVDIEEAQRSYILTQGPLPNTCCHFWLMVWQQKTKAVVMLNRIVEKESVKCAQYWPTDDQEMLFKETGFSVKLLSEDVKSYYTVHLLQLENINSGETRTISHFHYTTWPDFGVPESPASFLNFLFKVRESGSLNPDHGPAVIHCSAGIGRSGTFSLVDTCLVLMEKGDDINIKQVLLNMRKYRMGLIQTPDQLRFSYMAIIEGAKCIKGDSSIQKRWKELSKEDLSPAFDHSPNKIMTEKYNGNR
Method: (§1) Purified proteins (wt or mutant form of PTP1B or TCPTP (50 nM)) were reversibly oxidized with […] H2O2 followed by a buffer exchange using 0.5 mL Zeba spin desalting columns 7K MWCO (Thermo Fisher Scientific) to remove H2O2. Increasing concentration of purified HA-tagged scFv45 (0–10 µM) was incubated with oxidized proteins in binding buffer (20 mM HEPES, pH 7.4, 300 mM NaCl, 0.05% BSA, 0.05% Tween-20) for 2 h at 4 °C. Anti-HA agarose (Roche, 50% slurry equilibrated in the binding buffer) was added and incubated for 1 h at 4 °C. Protein complexes bound to anti-HA beads were immunoprecipitated and washed three times; first with lysis buffer followed by two more washes with wash buffer (25 mM HEPES, 100 mM NaCl pH 7.4, 0.05% BSA, 0.05% Tween-20, and protease inhibitors). The complexes were separated by SDS-PAGE and analyzed by immunoblotting.

[2] = biological target: T2, reversibly oxidized PTP1B-mut2 (L37F/K39E/K41R) (Homo sapiens, UniProt P18031, K39E/K41R/L37F); assay: as above
T2 construct: PTP1B (1–321) and TCPTP (1–317) cloned in pET21b vector were used as templates; 6xHis (C); made in house; host or cells: E. coli BL21 (DE3)-RIL
T2 sequence (P18031 1-321 L37F/K39E/K41R): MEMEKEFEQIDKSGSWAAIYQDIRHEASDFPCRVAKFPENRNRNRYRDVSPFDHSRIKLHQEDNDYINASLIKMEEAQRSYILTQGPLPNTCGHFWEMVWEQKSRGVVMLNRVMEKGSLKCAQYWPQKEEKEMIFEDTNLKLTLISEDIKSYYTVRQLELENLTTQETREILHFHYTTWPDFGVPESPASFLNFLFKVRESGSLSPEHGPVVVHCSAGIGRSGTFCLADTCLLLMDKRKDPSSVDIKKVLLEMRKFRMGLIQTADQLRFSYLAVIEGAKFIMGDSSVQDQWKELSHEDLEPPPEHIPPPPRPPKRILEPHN
Method: as §1

binding to reversibly oxidized TCPTP-mut2 [1]: promote binding
binding to reversibly oxidized PTP1B-mut2 [2]: did not bind; also recorded: abrogated
B1: scFv45: recombinant conformation-sensor single-chain variable fragment antibody recognizing oxidized PTP1B (antibody, V domains shown)
VH: TVTLDESGGGLQAPGGALSLVCKASGFTFSSYDMGWIRQAPGKGLEYVAGITDNGRYASYGSAVDGRATISRDNGQSSVRLQLNNLRAEDTGTYYCARDDGSGWTGNSIDAWGHGTEVIVSE
VL: ALTQPSSVSANPGGTVKITCSGSSSAYGYGWYQQKSPGSAPVTVIYNNNKRPSNIPSRFSGSKSGSTGTLTITGVQAEDEAVYFCGSEDSSTDAIFGAGTTLTVL
